For one substance, stoichiometry N results are on record in paper PMC6270756.

This assay concerns the target Nucleoside 2'-deoxyribosyltransferase from Bacillus psychrosaccharolyticus CECT 4074 (Bacillus psychrosaccharolyticus). Kind of assay: SEC; pure BpNDT on Sepharose 12 10/300 GL column (GE Healthcare); native mass estimated.

“Nucleoside 2'-deoxyribosyltransferase from Bacillus psychrosaccharolyticus CECT 4074 (enzyme)”: the stoichiometry N was 6.

Usually stoichiometry N stands for a count of units in the complex or per binding partner.
